Experimental data from PMC6208296, “Redox regulation of pyruvate kinase M2 by cysteine oxidation and S-nitrosation” (Biochemical Journal, 2018).

Experiments:
[1] = molecular target: M2 isoform of human pyruvate kinase, wild type (human) (UniProt P14618); test: SEC; analytical gel filtration, Superdex 200 PC 3.2/30 in PBS-CM, room temperature; stock of ∼20 mg/ml diluted to 0.1 mg/ml and incubated 1 h without or with 1 mM DTT or 20 μM H2O2; tetramer to monomers, peak areas on a bimodal distribution
[2] = molecular target: M2 isoform of human pyruvate kinase, wild type (human) (UniProt P14618); test: SEC; analytical gel filtration, Superdex 200 PC 3.2/30 in PBS-CM, room temperature; 0.1 mg/ml incubated 12 h (equilibrium) without or with 1 mM DTT or 20 μM H2O2; tetramer to monomers, peak areas on a bimodal distribution
[3] = molecular target: Pyruvate kinase M2 (Homo sapiens) (UniProt P14618); test: gel filtration; settings: cited from earlier work

Sequence of M2 isoform of human pyruvate kinase, wild type, P14618 1-531 (enzyme; other documents disagree on this pair) (P14618 whole entry, canonical isoform): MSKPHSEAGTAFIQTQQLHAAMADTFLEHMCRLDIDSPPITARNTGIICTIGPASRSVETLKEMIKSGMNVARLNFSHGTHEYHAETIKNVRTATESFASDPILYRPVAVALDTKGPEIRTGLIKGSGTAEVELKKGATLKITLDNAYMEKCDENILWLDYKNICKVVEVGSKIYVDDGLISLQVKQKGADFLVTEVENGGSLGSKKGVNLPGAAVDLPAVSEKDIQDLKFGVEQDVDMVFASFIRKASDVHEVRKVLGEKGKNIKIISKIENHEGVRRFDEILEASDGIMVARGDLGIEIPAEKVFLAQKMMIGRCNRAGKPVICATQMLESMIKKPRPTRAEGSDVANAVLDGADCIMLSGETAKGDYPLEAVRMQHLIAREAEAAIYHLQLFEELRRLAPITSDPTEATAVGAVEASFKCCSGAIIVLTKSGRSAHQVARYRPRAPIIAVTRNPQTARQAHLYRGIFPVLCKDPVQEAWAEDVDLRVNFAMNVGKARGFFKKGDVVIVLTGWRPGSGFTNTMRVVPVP
Sequence of Pyruvate kinase M2 (P14618 2-531): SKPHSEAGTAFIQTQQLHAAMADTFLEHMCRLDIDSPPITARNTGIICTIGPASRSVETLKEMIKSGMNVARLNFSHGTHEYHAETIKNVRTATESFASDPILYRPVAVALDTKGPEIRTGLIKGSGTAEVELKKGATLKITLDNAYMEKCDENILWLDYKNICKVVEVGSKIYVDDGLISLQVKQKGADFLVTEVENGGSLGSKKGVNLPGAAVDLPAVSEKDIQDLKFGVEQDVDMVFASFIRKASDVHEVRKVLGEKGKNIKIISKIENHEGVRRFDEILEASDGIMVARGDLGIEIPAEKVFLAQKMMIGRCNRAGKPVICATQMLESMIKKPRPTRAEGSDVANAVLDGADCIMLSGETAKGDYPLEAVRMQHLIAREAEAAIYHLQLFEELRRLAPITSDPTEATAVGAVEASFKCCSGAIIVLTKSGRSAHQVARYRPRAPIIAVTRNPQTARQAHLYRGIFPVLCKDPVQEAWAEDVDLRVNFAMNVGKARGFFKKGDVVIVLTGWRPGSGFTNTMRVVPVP

| Substance | percent tetramer (20 μM H2O2, 1 h) [1] [%] | percent tetramer (1 mM DTT, 1 h) [1] [%] | percent tetramer (no DTT, no H2O2, 1 h) [1] [%] | percent tetramer (20 μM H2O2, 12 h) [2] [%] | percent tetramer (1 mM DTT, 12 h) [2] [%] | percent tetramer (no DTT, no H2O2, 12 h) [2] [%] | Kd [3] [nM] |
| --- | --- | --- | --- | --- | --- | --- | --- |
| M2 isoform of human pyruvate kinase, wild type, P14618 1-531 (enzyme; other documents disagree on this pair) | 63 | 64 | 62 | 42 | 71 | 55 |  |
| Pyruvate kinase M2 (from UniProt P14618) |  |  |  |  |  |  | 900 |
